Data published in PMC10214526, “Semisynthetic LC3 Probes for Autophagy Pathways Reveal a Noncanonical LC3 Interacting Region Motif Crucial for the Enzymatic Activity of Human ATG3” (ACS Central Science, 2023).

Chain of ATG3 C1, Q9NT62 D104A (Q9NT62 whole entry D104A): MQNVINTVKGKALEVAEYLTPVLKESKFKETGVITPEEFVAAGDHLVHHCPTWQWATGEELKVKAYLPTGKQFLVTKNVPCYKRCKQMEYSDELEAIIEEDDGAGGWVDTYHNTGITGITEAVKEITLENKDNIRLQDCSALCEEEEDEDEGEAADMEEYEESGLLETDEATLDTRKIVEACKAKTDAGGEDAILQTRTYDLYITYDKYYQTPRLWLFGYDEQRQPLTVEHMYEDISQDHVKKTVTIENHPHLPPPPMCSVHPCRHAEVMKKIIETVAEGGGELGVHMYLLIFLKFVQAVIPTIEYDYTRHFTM
Chain of ATG3 C1, Q9NT62 I97A (Q9NT62 whole entry I97A): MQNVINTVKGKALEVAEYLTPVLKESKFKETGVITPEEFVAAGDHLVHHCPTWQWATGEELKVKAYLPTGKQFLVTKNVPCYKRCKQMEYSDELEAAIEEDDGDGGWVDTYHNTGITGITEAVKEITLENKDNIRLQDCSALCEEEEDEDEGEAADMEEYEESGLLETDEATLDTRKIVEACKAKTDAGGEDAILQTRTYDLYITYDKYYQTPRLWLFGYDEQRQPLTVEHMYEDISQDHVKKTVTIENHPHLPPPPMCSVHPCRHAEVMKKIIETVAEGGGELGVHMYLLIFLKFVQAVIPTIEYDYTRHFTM
Chain of ATG3 C1, Q9NT62 V108A (Q9NT62 other isoform, or with tags, fused parts or gaps V108A): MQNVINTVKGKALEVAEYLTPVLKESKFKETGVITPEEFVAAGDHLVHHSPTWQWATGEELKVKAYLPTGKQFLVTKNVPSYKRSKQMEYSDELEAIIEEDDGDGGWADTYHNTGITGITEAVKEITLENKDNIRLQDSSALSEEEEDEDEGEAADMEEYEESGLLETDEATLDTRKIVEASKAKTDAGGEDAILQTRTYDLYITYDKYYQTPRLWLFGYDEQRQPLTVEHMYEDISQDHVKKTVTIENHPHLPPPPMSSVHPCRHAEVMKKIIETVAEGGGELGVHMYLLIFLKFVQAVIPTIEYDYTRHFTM
Chain of ATG3 C1, Q9NT62 I98A (Q9NT62 whole entry I98A): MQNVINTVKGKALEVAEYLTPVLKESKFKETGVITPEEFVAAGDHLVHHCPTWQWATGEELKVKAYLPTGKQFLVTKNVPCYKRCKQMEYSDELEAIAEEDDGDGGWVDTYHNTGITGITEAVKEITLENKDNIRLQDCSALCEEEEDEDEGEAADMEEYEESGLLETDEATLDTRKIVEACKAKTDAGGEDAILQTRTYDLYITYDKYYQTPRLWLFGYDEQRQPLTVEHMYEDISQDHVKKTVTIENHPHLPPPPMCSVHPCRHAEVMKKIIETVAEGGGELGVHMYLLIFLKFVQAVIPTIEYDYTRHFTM
Chain of ATG3 C1, Q9NT62 D102A (Q9NT62 whole entry D102A): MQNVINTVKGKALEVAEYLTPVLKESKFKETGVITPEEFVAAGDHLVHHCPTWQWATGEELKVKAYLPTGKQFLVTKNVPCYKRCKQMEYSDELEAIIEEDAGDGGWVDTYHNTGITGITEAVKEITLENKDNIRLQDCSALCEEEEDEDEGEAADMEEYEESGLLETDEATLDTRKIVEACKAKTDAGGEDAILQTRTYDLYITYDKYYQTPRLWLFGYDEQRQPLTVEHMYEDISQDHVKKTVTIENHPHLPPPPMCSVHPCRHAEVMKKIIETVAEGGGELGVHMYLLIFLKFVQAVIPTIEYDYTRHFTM
Chain of ATG3 C1, Q9NT62 E95A (Q9NT62 whole entry E95A): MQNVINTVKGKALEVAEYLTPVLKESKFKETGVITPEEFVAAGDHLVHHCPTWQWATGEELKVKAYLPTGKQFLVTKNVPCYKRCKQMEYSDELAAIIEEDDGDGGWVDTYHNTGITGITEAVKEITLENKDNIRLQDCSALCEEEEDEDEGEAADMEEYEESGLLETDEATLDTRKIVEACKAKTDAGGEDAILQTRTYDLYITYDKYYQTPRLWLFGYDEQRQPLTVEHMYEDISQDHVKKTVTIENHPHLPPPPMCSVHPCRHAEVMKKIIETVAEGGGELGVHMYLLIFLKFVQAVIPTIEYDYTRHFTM
Chain of ATG3 C1, Q9NT62 Y111A (Q9NT62 whole entry Y111A): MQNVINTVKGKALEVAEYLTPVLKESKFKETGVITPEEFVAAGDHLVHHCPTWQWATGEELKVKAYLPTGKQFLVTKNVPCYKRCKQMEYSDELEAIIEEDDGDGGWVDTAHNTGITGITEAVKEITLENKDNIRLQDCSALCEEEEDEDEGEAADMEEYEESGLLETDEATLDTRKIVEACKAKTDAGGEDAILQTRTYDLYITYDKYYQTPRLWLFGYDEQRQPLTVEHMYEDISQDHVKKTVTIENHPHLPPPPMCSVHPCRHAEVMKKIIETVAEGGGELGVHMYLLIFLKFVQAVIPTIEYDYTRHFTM
Chain of ATG3 C1, Q9NT62 E99A (Q9NT62 whole entry E99A): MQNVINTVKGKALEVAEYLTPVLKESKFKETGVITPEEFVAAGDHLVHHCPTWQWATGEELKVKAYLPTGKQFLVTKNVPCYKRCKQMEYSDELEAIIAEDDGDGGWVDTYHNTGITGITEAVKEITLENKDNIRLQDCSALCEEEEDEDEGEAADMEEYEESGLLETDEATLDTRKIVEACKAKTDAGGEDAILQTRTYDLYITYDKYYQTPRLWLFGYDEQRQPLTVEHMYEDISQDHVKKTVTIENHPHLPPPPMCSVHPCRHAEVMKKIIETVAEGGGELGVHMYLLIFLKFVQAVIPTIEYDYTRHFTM
Chain of ATG3 C1, Q9NT62 D109A (Q9NT62 other isoform, or with tags, fused parts or gaps D109A): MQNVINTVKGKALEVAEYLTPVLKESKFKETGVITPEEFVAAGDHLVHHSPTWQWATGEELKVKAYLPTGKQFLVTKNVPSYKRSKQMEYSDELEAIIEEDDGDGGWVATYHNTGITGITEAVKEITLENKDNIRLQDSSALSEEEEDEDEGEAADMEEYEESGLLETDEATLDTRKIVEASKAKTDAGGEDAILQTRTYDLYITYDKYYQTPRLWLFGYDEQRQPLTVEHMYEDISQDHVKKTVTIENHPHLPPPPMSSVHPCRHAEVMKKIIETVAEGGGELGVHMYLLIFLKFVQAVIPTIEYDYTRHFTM
Chain of ATG3 C1, Q9NT62 D92A (Q9NT62 whole entry D92A): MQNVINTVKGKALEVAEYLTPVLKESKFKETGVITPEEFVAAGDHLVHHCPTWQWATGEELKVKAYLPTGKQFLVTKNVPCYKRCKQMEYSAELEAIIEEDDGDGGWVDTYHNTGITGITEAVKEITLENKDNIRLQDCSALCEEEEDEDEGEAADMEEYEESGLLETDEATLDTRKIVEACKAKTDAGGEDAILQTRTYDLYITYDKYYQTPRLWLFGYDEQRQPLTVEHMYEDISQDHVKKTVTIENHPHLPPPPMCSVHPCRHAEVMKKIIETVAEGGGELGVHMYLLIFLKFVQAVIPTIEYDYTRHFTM
Chain of ATG3 C1, Q9NT62 Y90A (Q9NT62 whole entry Y90A): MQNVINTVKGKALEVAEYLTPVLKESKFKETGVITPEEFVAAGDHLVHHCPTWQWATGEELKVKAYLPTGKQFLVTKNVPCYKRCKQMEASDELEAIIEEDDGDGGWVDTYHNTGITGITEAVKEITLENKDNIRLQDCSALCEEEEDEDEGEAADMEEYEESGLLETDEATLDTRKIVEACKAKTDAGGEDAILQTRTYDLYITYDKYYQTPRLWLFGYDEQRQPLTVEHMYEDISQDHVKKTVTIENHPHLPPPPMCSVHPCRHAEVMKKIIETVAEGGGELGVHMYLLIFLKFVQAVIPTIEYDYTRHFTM
Chain of ATG3 C1, Q9NT62 T110A (Q9NT62 other isoform, or with tags, fused parts or gaps T110A): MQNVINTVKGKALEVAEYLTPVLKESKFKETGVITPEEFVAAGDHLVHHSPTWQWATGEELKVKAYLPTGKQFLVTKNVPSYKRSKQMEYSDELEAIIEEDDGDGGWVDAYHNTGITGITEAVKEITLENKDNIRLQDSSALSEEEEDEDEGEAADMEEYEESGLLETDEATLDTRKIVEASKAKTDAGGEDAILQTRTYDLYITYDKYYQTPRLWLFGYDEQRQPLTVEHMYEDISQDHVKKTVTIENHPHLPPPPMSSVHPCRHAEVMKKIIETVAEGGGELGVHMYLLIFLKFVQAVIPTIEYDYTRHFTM
Chain of ATG3 C1, Q9NT62 W107A (Q9NT62 whole entry W107A): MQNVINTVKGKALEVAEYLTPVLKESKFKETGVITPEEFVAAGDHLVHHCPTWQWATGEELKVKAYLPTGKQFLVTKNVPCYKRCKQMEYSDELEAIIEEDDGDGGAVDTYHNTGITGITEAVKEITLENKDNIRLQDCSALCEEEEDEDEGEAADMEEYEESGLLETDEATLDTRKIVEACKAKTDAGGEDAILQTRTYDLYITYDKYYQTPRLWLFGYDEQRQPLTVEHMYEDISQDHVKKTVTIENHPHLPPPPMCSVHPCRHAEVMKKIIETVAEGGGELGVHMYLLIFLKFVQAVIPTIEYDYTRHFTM

Each substance was assayed against GABARAP(ΔG116)–NHNH methyl-fumarate 2 (UniProt O95166) (assay: cross-linking assay with probe 2, Coomassie SDS-PAGE gel densitometry). Conditions: GABARAP probe 2 15 μM; ATG3 C1 alanine variants 15 μM; 30 min; parent: est. 1.0; read off a plot.
Chain of GABARAP(ΔG116)–NHNH methyl-fumarate 2 (O95166 1-115, stated change not applied): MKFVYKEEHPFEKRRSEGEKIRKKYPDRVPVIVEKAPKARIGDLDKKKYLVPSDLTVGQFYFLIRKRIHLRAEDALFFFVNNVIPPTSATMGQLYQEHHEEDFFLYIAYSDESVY
ATG3 C1, Q9NT62 W107A was tested, and the ratio to parent was 0.17. For ATG3 C1, Q9NT62 I98A, the ratio to parent was 0.74. ATG3 C1, Q9NT62 I97A showed a ratio to parent of 0.31. ATG3 C1, Q9NT62 D109A was tested, and the ratio to parent was 1.4. For ATG3 C1, Q9NT62 D104A, the ratio to parent was 0.55. For ATG3 C1, Q9NT62 V108A, the ratio to parent was 0.38. For ATG3 C1, Q9NT62 T110A, the ratio to parent was 0.8. ATG3 C1, Q9NT62 E95A showed a ratio to parent of 0.35. ATG3 C1, Q9NT62 Y111A showed a ratio to parent of 0.69. ATG3 C1, Q9NT62 Y90A was tested, and the ratio to parent was 0.61. With ATG3 C1, Q9NT62 D102A the ratio to parent was 0.38. Substance ATG3 C1, Q9NT62 D92A has a ratio to parent of 1. Work on ATG3 C1, Q9NT62 E99A yielded a ratio to parent of 0.52.
